The source of these data is PMC10979056 (Heliyon, 2024).

B1: MsT001 (antibody, V domains shown)
VH: EVQLQQSGAEVVMPGASVKMSCKTSGYTFTDYLIHWVKQRPGQGLVWIGAIDTSDSYASYNQKFKGKATLTLDESSRTAYMQLSSLTSEDSAVYFCTGEGLDYWGQGTSVTVSS
VL: DIQMTQTPLSLPVSLGDQASISCRSSQSLVHSNGNTYLNWYLQKPGQSPKLLIYKVSYRFSGVPDRFSGSGSGTDFTLKISRVEAEDLGVYFCSQSTHVPPLTFGAGTKLELK
B2: MsT229 (antibody, V domains shown)
VH: EIQLVQSGPELVKPGASMKMSCKASGYSFTGYTMNWVKQSHGQNLEWIGLINPQTGGTSYNQNFRGKATLTVDKSSNTAYMELLSLTSEDSAVYYCARERGFDSPGFPYWGQGTLVTVSA
VL: DIQMTQTTSSLSASLGDRVTISCRASQDISNYLNWYQQKPDGTVKLLIYYTSRLHSGVPSRFSGSGSGTDYSLTISNLEQEDIATYFCQQGNTLPLTFGAGTKLELK
B3: MsT229-Bio (antibody, V domains shown)
VH: B2 VH
VL: B2 VL
B4: MsT286 (antibody, V domains shown)
VH: B2 VH with E1Q, I2V, V5Q
VL: not shown

Numbering of substitutions follows the chain as printed.

By Kd is commonly meant the concentration at which binding is half-saturated. Read a high Kd as a looser complex.

The first assay concerns the target human TIM-3-His (human, UniProt Q8TDQ0). The assay is described as follows: ELISA.
Regarding B1, the “sensitivity (lowest detectable concentration of coated TIM-3-His)” value (“sensitivity” for short) was 1 ng/mL. Turning to B2, the “sensitivity” value amounted to 10 ng/mL.

For B3, the “sensitivity” value came out at 1 ng/mL.

On to B4, for which the “sensitivity” value amounted to 1 ng/mL.

The target in another assay is cynomolgus TIM-3-hFc (Macaca fascicularis, UniProt A0A2K5U3G7). The assay is described as follows: BLI. In general terms: BLI is a label-free optical method that tracks binding on a fibre tip over time.
Regarding B2, binding was characterised by a dissociation constant (Kd) of 0.0179 nM. Still for that read-out and setting: the value for B4 was 0.914 nM.
